Results: the supplement of paper PMC6757056
± gives the standard deviation of the averaged measurements.

B1: library; a variant is named by its letters at N, in order (parent)
chain: GCUGUCACCGGUGUAUUACCCUAGUGGUCGACCGGUCUGAUGAGUCUNNNNNNAGACGAAACAGC

Legend:
[1] = variants of: B1; assay: FACS-Seq fitted mean relative fluorescence mCherry/BFP without ligand (log10 relative fluorescence); ligand: hypoxanthine (xanthine aptamer); higher = higher reporter protein expression; conditions: HEK293T, ligand present: no
Method in brief: (§1)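 With or without ligand for 48 h, enriched HEK293T libraries carrying a lentiviral ribozyme-switch mCherry reporter and EF1α-BFP were sorted into 6 mCherry/BFP bins. Bin genomic DNA was amplified by PCR, barcoded and sequenced on MiSeq. Fluorescence was taken from normal fits to the resulting bin counts. Each fitted mean of log10(mCherry/BFP) was scaled to five spiked-in control ribozymes.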

[2] = variants of: B1; assay: normalized RNA/DNA level with ligand (relative to sTRSVctl = 100) (log10 (% of sTRSVctl)); ligand: hypoxanthine (xanthine aptamer); higher = less ribozyme self-cleavage, higher mRNA level; conditions: ligand concentration (+) RNA-Seq: 5 mM, HEK293T, reporter: mCherry (pCS4076), ligand present: yes
Method in brief: (§2)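 RNA level was computed as RNA reads over DNA reads divided by a spiked-in non-cleaving sequence or by the top sequences, then scaled and log-transformed. Scaling was ×100 with log10, the top group was 25 sequences, and the threshold was ≥100 DNA reads. The reads came from HEK293T cells transfected at 4 µg per 6-well well with ribozyme switch library plasmids (mCherry, or eGFP in some ligand experiments). Total RNA was extracted with EDTA 72 h after transfection, with any ligand added 1 h before it.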

[3] = variants of: B1; assay: normalized RNA/DNA level without ligand (relative to sTRSVctl = 100) (log10 (% of sTRSVctl)); ligand: hypoxanthine (xanthine aptamer); higher = less ribozyme self-cleavage, higher mRNA level; conditions: HEK293T, reporter: mCherry (pCS4076), ligand present: no
Method in brief: as §2

[4] = variants of: B1; assay: FACS-Seq fitted mean relative fluorescence mCherry/BFP with ligand (log10 relative fluorescence); ligand: hypoxanthine (xanthine aptamer); ligand concentration (+) FACS-Seq: 5 mM; higher = higher reporter protein expression; conditions: HEK293T, ligand present: yes
Method in brief: as §1

Row | Variant | FACS-Seq fitted mean (log10) [1] | normalized RNA/DNA level with ligand (log10) [2] | normalized RNA/DNA level without ligand (log10) [3] | FACS-Seq fitted mean (log10) [4]
1 | UCCUGC | 0.86 ± 0.054 | 2.01 ± 0.056 | 1.919 ± 0.018 | 0.812 ± 0.091
2 | UCCUGG | 0.439 ± 0.047 | 1.94 ± 0.025 | 1.77 ± 0.073 | 0.518 ± 0.021
3 | GCCUAG | 0.303 ± 0.03 | 1.89 ± 0.097 | 1.5 ± 0.12 | 0.678 ± 0.037
4 | GCCUAA | 0.363 ± 0.14 | 1.94 ± 0.071 | 1.8319 ± 0.00042 | 0.558 ± 0.036
5 | GCCAAG | 0.432 ± 0.0083 | 1.829 ± 0.011 | 1.4 ± 0.051 | 0.713 ± 0.047
6 | GCCAAA | 0.458 ± 0.073 | 1.95 ± 0.042 | 1.813 ± 0.017 | 0.612 ± 0.1
7 | UCCGUU | -0.463 ± 0.04 | 1.946 ± 0.016 | 1.925 ± 0.019 | -0.148 ± 0.1
8 | UCCGUG | 0.223 ± 0.023 | 1.91 ± 0.071 | 1.47 ± 0.072 | 0.508 ± 0.065
9 | ACCCUG | 0.60276 ± 0.00041 | 1.875 ± 0.0043 | 1.411 ± 0.0069 | 0.786 ± 0.12
10 | CCCACA | 0.706 ± 0.022 | 1.99 ± 0.086 | 1.862 ± 0.0068 | 0.739 ± 0.032
11 | GCCAUG | 0.392 ± 0.0043 | 1.87 ± 0.094 | 1.48 ± 0.15 | 0.683 ± 0.074
12 | GCCAUA | 0.231 ± 0.083 | 1.95 ± 0.049 | 1.85 ± 0.079 | 0.487 ± 0.0075
13 | CCCAAG | 0.293 ± 0.059 | 1.91 ± 0.033 | 1.6 ± 0.079 | 0.439 ± 0.018
14 | CCCAAA | 0.477 ± 0.017 | 1.922 ± 0.019 | 1.84 ± 0.036 | 0.617 ± 0.11
15 | GCCUGA | 0.389 ± 0.04 | 1.99 ± 0.022 | 1.81 ± 0.038 | 0.6019 ± 0.0038
16 | CCCUUA | 0.315 ± 0.0096 | 2.002 ± 0.019 | 1.905 ± 0.014 | 0.279 ± 0.083
17 | UCGAGU | -0.023 ± 0.0044 | 1.74 ± 0.037 | 1.2 ± 0.071 | 0.407 ± 0.029
18 | UCGAGA | 0.0619 ± 0.098 | 1.74 ± 0.046 | 1.16 ± 0.086 | 0.455 ± 0.15

Row | Variant | FACS-Seq fitted mean (log10) [1] | normalized RNA/DNA level with ligand (log10) [2] | normalized RNA/DNA level without ligand (log10) [3] | FACS-Seq fitted mean (log10) [4]
19 | GCCGUU | -0.297 ± 0.0052 | 1.978 ± 0.019 | 1.92 ± 0.051 | 0.037 ± 0.093
20 | UCCCGU | 0.434 ± 0.043 | 1.934 ± 0.0021 | 1.703 ± 0.015 | 0.554 ± 0.048
21 | UCCACG | -0.24 ± 0.012 | 1.94 ± 0.14 | 1.71 ± 0.036 | 0.0232 ± 0.017
22 | GCGAUU | -0.0877 ± 0.0032 | 1.88 ± 0.06 | 1.65 ± 0.026 | 0.166 ± 0.016
23 | GCGAUC | 0.2339 ± 0.00091 | 1.87 ± 0.041 | 1.46 ± 0.038 | 0.601 ± 0.025
24 | GCGAUG | 0.314 ± 0.033 | 1.77 ± 0.028 | 1.24 ± 0.092 | 0.754 ± 0.064
25 | CCGAAG | -0.0351 ± 0.034 | 1.719 ± 0.0075 | 1.2 ± 0.14 | 0.496 ± 0.027
26 | CCGAAA | 0.595 ± 0.015 | 1.91 ± 0.049 | 1.7 ± 0.04 | 0.689 ± 0.05
27 | UCGAAA | 0.163 ± 0.02 | 1.86 ± 0.052 | 1.4 ± 0.051 | 0.395 ± 0.045
28 | UCGAAG | 0.5 ± 0.074 | 1.87 ± 0.039 | 1.417 ± 0.0057 | 0.746 ± 0.025
29 | UCCUAC | 0.76 ± 0.022 | 2.01 ± 0.096 | 1.88 ± 0.076 | 0.751 ± 0.058
30 | CCGAUU | 0.52 ± 0.04 | 1.963 ± 0.019 | 1.78 ± 0.027 | 0.524 ± 0.036
31 | ACGGAC | 0.332 ± 0.11 | 1.92 ± 0.06 | 1.7 ± 0.029 | 0.565 ± 0.062
32 | ACGGAA | 0.072 ± 0.016 | 1.891 ± 0.013 | 1.45 ± 0.034 | 0.327 ± 0.04
33 | GCCCUU | 0.019 ± 0.061 | 1.95 ± 0.065 | 1.92 ± 0.058 | 0.231 ± 0.0079
34 | GCCCUG | -0.113 ± 0.029 | 1.873 ± 0.0091 | 1.49 ± 0.049 | 0.497 ± 0.092
35 | GCGAGU | 0.238 ± 0.013 | 1.86 ± 0.044 | 1.23 ± 0.059 | 0.662 ± 0.069
36 | GCGAGG | -0.188 ± 0.032 | 1.637 ± 0.015 | 1.11 ± 0.036 | 0.5 ± 0.017
